This note sets out measurements from paper PMC10537722, “Proline Dehydrogenase and Pyrroline 5 Carboxylate Dehydrogenase from Mycobacterium tuberculosis: Evidence for Substrate Channeling” (Pathogens, 2023).

Data set [1] deals with NC(=O)c1ccc[n+]([C@@H]2O[C@H](COP(=O)([O-])OP(=O)(O)OC[C@H]3O[C@@H](n4cnc5c(N)ncnc54)[C@H](O)[C@@H]3O)[C@@H](O)[C@H]2O)c1. The data set can be described thus: purified protein. Conditions: pH 7.0; 25.0 °C; varied: cofactor.
In data set [2] the test system is O=C(O)C1CCC=N1. The experiment in a line: purified protein. The conditions noted are these: NAD^+; pH 7.0; 25.0 °C.
For data set [3], the target named is T1, ∆^1-pyrroline-5-carboxylate (P5C) dehydrogenase (PruA) (Mycobacterium tuberculosis, UniProt O50443).
T1 construct: gene rocA
The experiment in a line: biochemical.

A word on the Km: it is the concentration of substrate that gives half-maximal velocity. As usually defined, the kcat is the maximal rate divided by the concentration of active sites. Broadly, the kcat/Km is the turnover number divided by the Michaelis constant. The term Ki denotes the dissociation constant of the complex between target and ligand, obtained from inhibition or displacement. Lower therefore signals tighter binding.

T1 sequence (O50443 1-543): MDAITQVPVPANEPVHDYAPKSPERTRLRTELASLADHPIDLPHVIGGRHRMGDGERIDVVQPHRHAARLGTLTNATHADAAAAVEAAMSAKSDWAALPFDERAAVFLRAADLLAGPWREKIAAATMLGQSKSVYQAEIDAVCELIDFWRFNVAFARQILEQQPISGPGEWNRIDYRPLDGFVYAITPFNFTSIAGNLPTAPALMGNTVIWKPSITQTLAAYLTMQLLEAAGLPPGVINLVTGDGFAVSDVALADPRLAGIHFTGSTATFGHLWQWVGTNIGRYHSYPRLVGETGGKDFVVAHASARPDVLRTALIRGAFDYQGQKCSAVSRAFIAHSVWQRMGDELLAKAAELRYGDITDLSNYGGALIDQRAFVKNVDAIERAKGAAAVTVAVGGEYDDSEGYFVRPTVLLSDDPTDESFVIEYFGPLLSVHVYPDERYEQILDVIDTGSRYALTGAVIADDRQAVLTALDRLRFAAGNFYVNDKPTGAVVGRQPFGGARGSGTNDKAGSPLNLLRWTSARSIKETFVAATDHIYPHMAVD

Take “∆^1-pyrroline-5-carboxylate (P5C) dehydrogenase (PruA) (Mycobacterium tuberculosis H37Rv)”: the Km in data set [1] was 33 ± 4.3 µM. Further, in data set [2], the Km was found to be 120 ± 0.02 µM, the kcat worked out at 1.1 s⁻¹ and the kcat/Km was 8500 M⁻¹ s⁻¹.

The compound `O=C(O)[C@@H]1CCCN1` [L-proline] had a Ki in data set [3] of 6.7 mM.
